These results are taken from article PMC7570391, “Cyclic Di-adenosine Monophosphate Regulates Metabolism and Growth in the Oral Commensal Streptococcus mitis” (Microorganisms, 2020).

A word on the stoichiometry N: it is a count of units in the complex or per binding partner. By Km is commonly meant the substrate concentration at which the rate is half of its maximum. For orientation: Vmax means the rate approached at saturating substrate. As usually defined, the kcat is the number of substrate molecules converted per active site and unit of time at saturation. One may read the kcat/Km as the second-order rate constant that governs catalysis at low substrate concentration.

In data set [1] the target is CdaA_(103–285), truncated S. mitis CdaA-type diadenylate cyclase (SM12261_1351) lacking the transmembrane helices (Streptococcus mitis CCUG 31611). Put plainly: SEC; Superose 6 Increase 10/300 GL on an ÄKTA Pure 25; SEC buffer 1x PBS pH 7.4 with 10% glycerol; apparent molecular weight from vE/v0 against gel filtration markers (12,000-200,000 Da). In general terms: In gel filtration, larger molecules generally elute earlier.

Data set [2] deals with Nc1ncnc2c1ncn2[C@@H]1O[C@H](COP(=O)(O)O[C@H]2[C@@H](O)[C@H](n3cnc4c(N)ncnc43)O[C@@H]2COP(=O)(O)O)[C@@H](O)[C@H]1O. Put plainly: purified protein. Particulars: 1 mM MnCl2, 50 mM Tris-HCl pH 7.5, 37 °C, 5 μM enzyme, product AMP.
Data set [3] concerns [H][C@@]1(O)[C@]2([H])OP(=O)(O)OC[C@@]3([H])O[C@@]([H])(n4cnc5c(N)ncnc54)[C@]([H])(O)[C@]3([H])OP(=O)(O)OC[C@@]2([H])O[C@@]1([H])n1cnc2c(N)ncnc21. Put plainly: purified protein. To be noted: 1 mM MnCl2, 50 mM Tris-HCl pH 7.5, 37 °C, 2.5 μM enzyme, product pApA.
In data set [4] the target is Pde2, full-length S. mitis DhhP-type phosphodiesterase (SM12261_1122) (Streptococcus mitis CCUG 31611). Put plainly: SEC; Superose 6 Increase 10/300 GL on an ÄKTA Pure 25; SEC buffer 1x PBS pH 7.4 with 10% glycerol; apparent molecular weight from vE/v0 against gel filtration markers (12,000-200,000 Da).
Substrate in data set [5]: Nc1ncnc2c1ncn2[C@@H]1O[C@H](COP(=O)(O)O[C@H]2[C@@H](O)[C@H](n3cnc4c(N)ncnc43)O[C@@H]2COP(=O)(O)O)[C@@H](O)[C@H]1O
The experiment in a line: AMP formation, reversed-phase HPLC, Michaelis-Menten fit. In kind it is biochemical, Streptococcus mitis. Particulars: 1 mM MnCl2, 50 mM Tris-HCl pH 8.5, 37 °C, 0.05 μM enzyme, product AMP. An excerpt: (§1) AMP formation, reversed-phase HPLC, Michaelis-Menten fit on Pde2

Substrate in data set [6]: [H][C@@]1(O)[C@]2([H])OP(=O)(O)OC[C@@]3([H])O[C@@]([H])(n4cnc5c(N)ncnc54)[C@]([H])(O)[C@]3([H])OP(=O)(O)OC[C@@]2([H])O[C@@]1([H])n1cnc2c(N)ncnc21
The data set is described as above. It is filed as biochemical, Streptococcus mitis. To be noted: 1 mM MnCl2, 50 mM Tris-HCl pH 8.5, 37 °C, 10 μM enzyme, product AMP.
Description: as §1

Turning to “CdaA_(103–285), truncated S. mitis CdaA-type diadenylate cyclase (SM12261_1351) lacking the transmembrane helices (domain or fragment)”, the stoichiometry N in data set [1] is 2.
For “Pde1_53–657 (Streptococcus mitis NCTC 12261)”, in data set [2], the Km was 152.4 ± 03.6 µM, the Vmax came out at 748 µM/min, the kcat came out at 2.49 ± 0.61 s⁻¹ and the kcat/Km was 16400 M⁻¹ s⁻¹. For the same molecule, in data set [3], the Km worked out at 241.3 ± 11.6 µM, the Vmax worked out at 621 µM/min, the kcat is 4.14 ± 1.99 s⁻¹ and the kcat/Km was found to be 17000 M⁻¹ s⁻¹.
As to “Pde2, full-length S. mitis DhhP-type phosphodiesterase (SM12261_1122) (enzyme)”, in data set [4], the stoichiometry N was 2.

B1: Pde2 (Streptococcus mitis NCTC 12261) (protein)
chain: MDICHQILEKIKEYDTIIIHRHMKPDPDALGSQVGLKALLKHHFPEKTIKAVGFDEPTLTWMAEMDLVEDSAYQGALVIVCDTANTARIDDKRYSQGDFLIKIDHHPNDDVYGDLSWVDTSSSSASEMITLFAQTTQLALSDRAAELLFAGIIGDTGRFLYPSTTERTLRLAAYLREHNFDFAALTRKMDTMSYKIAKLQGYIYDHLEVDENGAARVILSQEILKRFNVTDAETAAIVGAPGRIDSVSLWGIFVEQADGHYRVRLRSKIHPINEIAKEHDGGGHPLASGANSYSLEENEIIYQKLKNLLKN
Turning to B1, in data set [5], the Km stood at 877 ± 312 µM, the Vmax was 10600 µM/min, the kcat was found to be 3530 ± 623 s⁻¹ and the kcat/Km amounted to 4.02e+06 M⁻¹ s⁻¹. Further, in data set [6], the Km amounted to 148.5 ± 34.8 µM, the Vmax is 46.8 µM/min, the kcat turned out to be 0.078 ± 0.005 s⁻¹ and the kcat/Km amounted to 525 M⁻¹ s⁻¹.
